Experimental data: US20230312750A1 (AD PHARMACEUTICALS, published 2023)

B1: evolocumab (purchased from AMGEN) (antibody, V domains shown)
VH: QVQLVQSGAEVKKPGASVKVSCKASGYTLTSYGISWVRQAPGQGLEWMGWVSFYNGNTNYAQKLQGRGTMTTDPSTSTAYMELRSLRSDDTAVYYCARGYGMDVWGQGTTVTVSS
VL: QSALTQPASVSGSPGQSITISCTGTSSDVGGYNSVSWYQQHPGKAPKLMIYEVSNRPSGVSNRFSGSKSGNTASLTISGLQAEDEADYYCNSYTSTSMVFGGGTKLTVL
B2: MAB1 (antibody, V domains shown)
VH: EVQLVESGGGLVQPGRSLRLSCAASGFTFSSYSMNWVRQAPGKGLEWVSGISSSSSYISYADSVQGRFTISRDNGKNSLYLQMNSLRAEDTALYFCAREYDFWSAYYDAFDVWGQGTMVTVSS
VL: QSELTQPRSVSGSPGQSVTISCTGTSRNIGGGNDVHWYQQHPGKAPKLLISGVIERSSGVPDRFSGSKSGNTASLTISGLQAEDEADYYCQSFDGSLSGSVFGTGTDVTVL

Experiments:
Assay in all cases: cell-based or functional assay
[1] = molecular target: T1, PCSK9-his (wild-type PCSK9, prepared by Akeso Biopharma) (human, UniProt Q8NBP7 31-692, limits assumed)
[2] = molecular target: PCSK9(D374Y)-his (Acrobio, cat. no. PCY-H5225) (UniProt Q8NBP7 31-692)
[3] = molecular target: T1, PCSK9-his (wild-type PCSK9, prepared by …); remark: listed apart in the source

Row | EC50 for inhibition of LDLR endocytosis by wild-type PCSK9 (BODIPY-LDL uptake, HepG2 cells) [1] | EC50 for inhibition of LDLR endocytosis by functionally enhanced mutant PCSK9 (PCSK9-D374Y) (BODIPY-LDL uptake, HepG2 cells) [2] | EC50 of MAB1 for inhibition of LDLR endocytosis by wild-type PCSK9 (BODIPY-LDL uptake, HepG2 cells) [1] | EC50 for MAB1 relieving the inhibition of LDL endocytosis in HepG2 cells by PCSK9 [3] | Binder
1 | 30.8 µg/mL | 1.26 µg/mL |  |  | B1
2 |  |  | 32.9 µg/mL | 13 µg/mL | B2
